Assay results: patent US20220401521A1 (NANJING HANXIN PHARMACEUTICAL TECHNOLOGY, published 2022)
No end group written: not given here.

Assays:
[1] = target: melanocortin receptor 2 (MC2R); test: cell-based or functional assay
[2] = target: melanocortin receptor 2 (MC2R); test: cell-based or functional assay; remark: listed apart in the source

melanocortin receptor 2 (MC2R), sequence (Q01718 whole entry): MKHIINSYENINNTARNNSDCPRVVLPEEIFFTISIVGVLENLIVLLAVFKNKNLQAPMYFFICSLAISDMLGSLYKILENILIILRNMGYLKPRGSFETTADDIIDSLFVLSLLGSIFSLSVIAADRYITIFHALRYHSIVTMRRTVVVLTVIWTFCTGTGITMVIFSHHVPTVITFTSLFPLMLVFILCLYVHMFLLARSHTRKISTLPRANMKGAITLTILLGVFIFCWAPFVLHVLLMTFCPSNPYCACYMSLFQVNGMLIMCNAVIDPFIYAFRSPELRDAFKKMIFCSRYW

activity of high-purity ACTH relative to low-purity ACTH (calcium ion signal, MC2R cells) [1] [fold]	EC50(nM), calcium ion signal in CHO-K1 cells expressing MC2R [2] [nM]	Binder
1.6	180	SYSMEHFRWGKPVGKKRRPVKVYPNGAEDESAEAFPLEF (also: acetate salt) [high-purity ACTH (human sequence SEQ ID NO: 3, 99.88%)]
–	288	SYSMEHFRWGKPVGKKRRPVKVYPNGAEDESAEAFPLEF [low-purity ACTH (human sequence SEQ ID NO: 3, 75.72%)]
